Measurements reported in patent US20240254246A1 (PROMETHEUS BIOSCIENCES, published 2024).
Read-outs that look alike come from different tables or passages of the source.

Columns and labels:
[1] = molecular target: T1, human CD30L expressed on cells (human, UniProt P32971 1-234); experiment: flow cytometry, B16-huCD30L cells
T1 construct: whole, on cells; also called huCD30L; B16-huCD30L cells
T1 sequence (looked up): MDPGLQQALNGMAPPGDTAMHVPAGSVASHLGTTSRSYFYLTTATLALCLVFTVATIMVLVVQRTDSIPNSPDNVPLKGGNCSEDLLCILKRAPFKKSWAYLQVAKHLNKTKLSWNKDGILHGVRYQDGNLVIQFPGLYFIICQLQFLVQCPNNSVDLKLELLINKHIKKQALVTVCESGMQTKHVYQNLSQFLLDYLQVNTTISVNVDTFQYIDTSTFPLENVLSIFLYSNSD
Experimental: Anti-CD30L antibody binding to a CD30L target was determined by flow cytometry, using B16 cells transfected to express human CD30L (compared to non-transfected B16), and using HEK293 cells transfected to express cynomolgus CD30L (compared to non-transfected HEK293). […] Cell surface bound antibodies were detected using a fluorescently labeled anti-human-IgG or anti-mouse IgG, depending on the Fc portion of the antibodies. After incubation with the secondary antibody, the cells were washed, fixed in a paraformaldehyde solution, and analyzed by flow cytometry to detect antibody binding.

[2] = molecular target: T1, human CD30L expressed on cells; experiment: cell-based or functional assay
[3] = molecular target: T2, cynomolgus CD30L expressed on HEK293 cells (cynomolgus, UniProt A0A7N9CVX7 1-234); experiment: cell-based or functional assay
T2 sequence: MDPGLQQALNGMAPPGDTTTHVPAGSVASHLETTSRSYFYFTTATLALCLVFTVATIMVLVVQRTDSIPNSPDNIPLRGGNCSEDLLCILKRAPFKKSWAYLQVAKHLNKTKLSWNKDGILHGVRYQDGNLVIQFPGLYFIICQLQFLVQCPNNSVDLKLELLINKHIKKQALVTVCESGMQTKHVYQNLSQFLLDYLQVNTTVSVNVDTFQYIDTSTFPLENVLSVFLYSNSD

[4] = molecular target: T1, human CD30L expressed on cells; experiment: flow cytometry, blocking of huCD30 binding to B16-huCD30L cells
[5] = molecular target: T3, recombinant human CD30L protein (human, UniProt P32971 63-234); experiment: ELISA, huCD30L, 1/5000 dil
T3 construct: also called rhCD30L; huCD30L (ELISA)
T3 sequence (looked up): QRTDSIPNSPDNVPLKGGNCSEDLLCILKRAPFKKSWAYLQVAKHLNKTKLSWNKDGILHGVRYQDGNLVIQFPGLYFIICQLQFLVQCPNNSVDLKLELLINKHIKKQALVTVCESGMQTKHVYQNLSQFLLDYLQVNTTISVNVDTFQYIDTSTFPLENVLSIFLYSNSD

[6] = molecular target: T4, human CD30L expressed on cells (human, UniProt P32971 1-234); experiment: flow cytometry, huCD30L cells, 1/50 dil
T4 construct: also called huCD30L; B16-huCD30L
T4 sequence: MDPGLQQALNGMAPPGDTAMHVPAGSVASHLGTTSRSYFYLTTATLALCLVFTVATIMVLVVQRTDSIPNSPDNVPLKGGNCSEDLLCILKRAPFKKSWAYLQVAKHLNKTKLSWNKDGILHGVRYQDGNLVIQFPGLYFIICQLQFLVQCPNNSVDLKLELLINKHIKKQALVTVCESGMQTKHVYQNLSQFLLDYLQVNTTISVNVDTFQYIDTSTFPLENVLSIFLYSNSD

[7] = molecular target: T3, recombinant human CD30L protein; experiment: ELISA, huCD30L, 1/50 dil
[8] = molecular target: T5, cynomolgus CD30L expressed on cells (cynomolgus, UniProt A0A7N9CVX7 1-234); experiment: flow cytometry, cyCD30L cells, 1/50 dil
T5 construct: whole, on cells; also called cyCD30L; HEK293-cyCD30L
T5 sequence: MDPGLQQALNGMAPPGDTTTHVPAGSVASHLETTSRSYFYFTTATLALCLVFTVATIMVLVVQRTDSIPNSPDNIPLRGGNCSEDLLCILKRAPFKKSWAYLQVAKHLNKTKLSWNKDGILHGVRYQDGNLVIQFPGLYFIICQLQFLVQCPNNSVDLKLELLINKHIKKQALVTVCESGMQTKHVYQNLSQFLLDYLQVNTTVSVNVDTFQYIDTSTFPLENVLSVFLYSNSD

[9] = molecular target: T3, recombinant human CD30L protein; experiment: ELISA, huCD30L, 1/500 dil
[10] = molecular target: T6, recombinant cynomolgus CD30L protein (cynomolgus, UniProt A0A7N9CVX7 63-234); experiment: ELISA, 1/50 dil
T6 construct: Recombinant protein used in ELISA; also called cyCD30L
T6 sequence: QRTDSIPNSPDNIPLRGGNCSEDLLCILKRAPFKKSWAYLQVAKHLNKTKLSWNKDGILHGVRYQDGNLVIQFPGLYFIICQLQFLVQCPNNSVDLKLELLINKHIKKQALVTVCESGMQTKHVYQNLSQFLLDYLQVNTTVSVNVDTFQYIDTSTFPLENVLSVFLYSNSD

[11] = molecular target: T6, recombinant cynomolgus CD30L protein; experiment: ELISA, 1/500 dil
[12] = molecular target: T6, recombinant cynomolgus CD30L protein; experiment: ELISA, 1/5000 dil
[13] = molecular target: T7, recombinant human CD30L protein (human, UniProt P32971 63-234); experiment: ELISA, CD30 competitor, 1/10 dil
T7 construct: Recombinant protein used in ELISA; also called huCD30L
T7 sequence (looked up): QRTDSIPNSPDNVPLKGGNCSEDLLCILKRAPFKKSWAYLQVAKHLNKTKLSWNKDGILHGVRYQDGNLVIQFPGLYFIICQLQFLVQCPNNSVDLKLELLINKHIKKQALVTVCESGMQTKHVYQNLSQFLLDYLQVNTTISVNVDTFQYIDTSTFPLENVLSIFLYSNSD

[14] = molecular target: T7, recombinant human CD30L protein; experiment: ELISA, CD30 competitor, 1/100 dil
[15] = molecular target: T7, recombinant human CD30L protein; experiment: ELISA, CD30 competitor, undil
[16] = molecular target: T7, recombinant human CD30L protein; experiment: ELISA, CD30 competitor, 1/1000 dil
[17] = molecular target: T8, cynomolgus CD30L expressed on HEK293 cells (cynomolgus, UniProt A0A7N9CVX7 1-234); experiment: flow cytometry, binding to HEK293-cyCD30L cells
T8 construct: whole, on cells; also called HEK293-cyCD30L; HEK-cyCD30L
T8 sequence: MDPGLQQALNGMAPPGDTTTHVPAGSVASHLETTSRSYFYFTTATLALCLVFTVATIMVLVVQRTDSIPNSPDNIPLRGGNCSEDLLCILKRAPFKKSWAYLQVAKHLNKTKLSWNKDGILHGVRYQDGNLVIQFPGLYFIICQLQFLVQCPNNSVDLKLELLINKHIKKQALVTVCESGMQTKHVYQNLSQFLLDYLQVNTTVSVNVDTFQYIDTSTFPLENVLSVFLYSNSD

[18] = molecular target: T9, human CD30L expressed on B16 cells (human, UniProt P32971 1-234); experiment: flow cytometry, blocking of CD30-Fc on B16-huCD30L cells; competitor CD30-Fc
T9 construct: whole, on cells; B16 cell line transfected to express human CD30L; also called B16-huCD30L; B16-rhCD30L
T9 sequence (looked up): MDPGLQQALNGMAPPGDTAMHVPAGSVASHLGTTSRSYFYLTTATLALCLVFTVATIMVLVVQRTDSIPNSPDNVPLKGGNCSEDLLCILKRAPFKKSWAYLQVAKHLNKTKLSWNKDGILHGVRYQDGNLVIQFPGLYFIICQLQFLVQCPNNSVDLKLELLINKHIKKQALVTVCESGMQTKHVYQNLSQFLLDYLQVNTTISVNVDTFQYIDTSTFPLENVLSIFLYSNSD

[19] = molecular target: T9, human CD30L expressed on B16 cells; experiment: flow cytometry, binding to B16-rhCD30L cells
[20] = molecular target: T8, cynomolgus CD30L expressed on HEK293 …; experiment: flow cytometry, blocking of CD30-Fc on HEK293-cyCD30L cells; competitor CD30-Fc
[21] = molecular target: T9, human CD30L expressed on B16 cells; experiment: cell-based or functional assay
[22] = molecular target: T8, cynomolgus CD30L expressed on HEK293 …; experiment: cell-based or functional assay; remark: listed apart in the source

B1: Clone 2, Mouse IgG (antibody, V domains shown)
VH: EVQLVESGGGLVQPGRSLRLSCAASGFNFDDYAMHWVRQAPGKGLEWVSGISWRSGNIGYAGSVKGRFTISRDNAKNSLYLQMNSLRPEDSALYYCAKDKGIGFNWNYEGFDYWGQGTLVTVSS
VL: DIQMTQSPSSLSASVGDRVTITCRASQGISNHLAWFQQKPGKAPKSLIYAASSLQSGVPSKFSGSGSGTDFTLTISSLQPEDFATYYCQQYVTYPLTFGGGTKVEIK
notes: Mouse IgG format
B1 was tested, and the EC50 [1] was 1.21 nM, the “Inhibition of IL-8 release in a dual cell assay (B16-huCD30L cells + K299 cells) IC50” value [2] was 1.2 nM and the “Inhibition of IL-8 release in a dual cell assay (HEK293-cyCD30L cells + K299 cells) IC50” value [3] was 0.46 nM. The IC50 [4] was 1.84 nM.

B2: Clone 2, Human IgG1 (antibody, V domains shown)
VH: EVQLVESGGGLVQPGRSLRLSCAASGFNFDDYAMHWVRQAPGKGLEWVSGISWRSGNIGYAGSVKGRFTISRDNAKNSLYLQMNSLRPEDSALYYCAKDKGIGFNWNYEGFDYWGQGTLVTVSS
VL: DIQMTQSPSSLSASVGDRVTITCRASQGISNHLAWFQQKPGKAPKSLIYAASSLQSGVPSKFSGSGSGTDFTLTISSLQPEDFATYYCQQYVTYPLTFGGGTKVEIK
notes: Human IgG1 format
In the case of B2, the EC50 [1] is reported as 0.81 nM, the “Inhibition of IL-8 release in a dual cell assay (B16-huCD30L cells + K299 cells) IC50” value [2] is reported as 0.6 nM and the “Inhibition of IL-8 release in a dual cell assay (HEK293-cyCD30L cells + K299 cells) IC50” value [3] is reported as 0.24 nM. It also gave an IC50 [4] of 0.86 nM.

B3: anti-CD30L clone 2 (antibody, V domains shown)
VH: EVQLVESGGGLVQPGRSLRLSCAASGFNFDDYAMHWVRQAPGKGLEWVSGISWRSGNIGYAGSVKGRFTISRDNAKNSLYLQMNSLRPEDSALYYCAKDKGIGFNWNYEGFDYWGQGTLVTVSS
VL: DIQMTQSPSSLSASVGDRVTITCRASQGISNHLAWFQQKPGKAPKSLIYAASSLQSGVPSKFSGSGSGTDFTLTISSLQPEDFATYYCQQYVTYPLTFGGGTKVEIK
notes: From mice with humanized immunoglobulin locus; elsewhere tested as mouse IgG and human IgG1; also called clone 2 parental
Binder B3 has an OD [5] of 0.565 OD, an MFI [6] of 280 MFI and an OD [7] of 2.15 OD. For the same binder, the MFI [8] was 57.6 MFI and the OD [9] was 1.71 OD.

B4: anti-CD30L clone 4 (antibody, V domains shown)
VH: QVQLVESGGGVVQPGRSLRLSCAASGFPFSSYGMHWVRQAPGKGLEWVTFIWFDGNNKDYADSVKGRFSVSRDNSKNTLYLQMNSLRADDTAVYYCARNGVYYGSGAYVDYWGQGTLVTVSS
VL: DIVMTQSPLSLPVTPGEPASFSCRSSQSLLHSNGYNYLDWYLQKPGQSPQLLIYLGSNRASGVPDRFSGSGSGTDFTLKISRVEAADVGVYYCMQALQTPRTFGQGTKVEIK
B4 was tested, and the OD [5] was 0.68 OD, the MFI [6] was 151 MFI and the OD [7] was 3.08 OD. For the same binder, the MFI [8] was 67.8 MFI and the OD [9] was 2.65 OD.

B5: Clone 4 (antibody, V domains shown)
VH: QVQLVESGGGVVQPGRSLRLSCAASGFPFSSYGMHWVRQAPGKGLEWVTFIWFDGNNKDYADSVKGRFSVSRDNSKNTLYLQMNSLRADDTAVYYCARNGVYYGSGAYVDYWGQGTLVTVSS
VL: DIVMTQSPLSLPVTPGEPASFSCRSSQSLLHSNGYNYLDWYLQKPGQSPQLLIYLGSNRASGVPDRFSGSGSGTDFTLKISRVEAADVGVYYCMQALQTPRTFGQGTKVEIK
notes: Hybridoma screening sample; also called CLONE_4 (parental)
For B5, the “Elisa Binding (OD)” value [10] was 2.58 OD, the “Elisa Binding (OD)” value [11] was 2.38 OD and the “Elisa Binding (OD)” value [12] was 0.583 OD. The “% inhibition” value [13] was 96%, the “% inhibition” value [14] was 10% and the “% inhibition” value [15] was 98%. For the same binder, the “% inhibition” value [16] was 0%.

B6: anti-CD30L Reference 1 antibody (antibody, human IgG1, lambda, V domains shown)
VH: QVQLQESGPGLVKPSETLSLTCTVSGGSISSYIWSWIRQPAGKGLEWIGRIYASGNTNYNPSLKSRVTISVDTSKNQFSLKLSSMTAADTAVYYCARDYRVAGTYYYYYGLDVWGQGTTVTVSS
VL: QSALTQPASVSGSPGQSITISCTGTSSDVGVYDYVSWYQQHPGKAPKLMIYEVSNRPSGVSNRFSGSKSGNTASLTISGLQTEDEADYYCSSYTSRSTWVFGGGTKLTVLG
With B6 the EC50 [17] was 0.56 nM, the IC50 [18] was 1.84 nM and the EC50 [19] was 1.12 nM. For the same binder, the IC50 [20] was 0.73 nM, the “Inhibition of IL-8 release in a dual cell assay (B16-huCD30L cells + K299 cells) IC50” value [21] was 1.61 nM and the “Inhibition of IL-8 release in a dual cell assay (HEK293-cyCD30L cells + K299 cells) IC50” value [22] was 0.79 nM.
